Assay [1] concerns the target T1, human FGFR3 isoform IIIc (human, UniProt P22607 23-375, limits assumed).
T1 construct: also called hFGFR3IIIc; FGFR3 IIIc
T1 sequence: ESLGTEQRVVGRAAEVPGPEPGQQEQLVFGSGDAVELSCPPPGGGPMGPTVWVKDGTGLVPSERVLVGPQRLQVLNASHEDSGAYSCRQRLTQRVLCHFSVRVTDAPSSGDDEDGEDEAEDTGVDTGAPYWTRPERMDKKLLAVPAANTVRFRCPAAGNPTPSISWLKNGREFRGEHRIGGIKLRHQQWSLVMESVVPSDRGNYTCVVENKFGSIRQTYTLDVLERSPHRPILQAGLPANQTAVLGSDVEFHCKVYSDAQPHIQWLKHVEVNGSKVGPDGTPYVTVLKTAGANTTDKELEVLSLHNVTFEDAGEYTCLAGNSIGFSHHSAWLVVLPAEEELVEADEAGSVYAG
The assay is described as follows: reactivity grade (Table 2); method not given.

For assay [2], the target named is T2, human FGFR3 isoform IIIb (human, UniProt P22607-2 23-377).
T2 construct: Isoform IIIb differs from the canonical IIIc entry in the D3 domain; also called hFGFR3IIIb; FGFR3 IIIb
T2 sequence (looked up): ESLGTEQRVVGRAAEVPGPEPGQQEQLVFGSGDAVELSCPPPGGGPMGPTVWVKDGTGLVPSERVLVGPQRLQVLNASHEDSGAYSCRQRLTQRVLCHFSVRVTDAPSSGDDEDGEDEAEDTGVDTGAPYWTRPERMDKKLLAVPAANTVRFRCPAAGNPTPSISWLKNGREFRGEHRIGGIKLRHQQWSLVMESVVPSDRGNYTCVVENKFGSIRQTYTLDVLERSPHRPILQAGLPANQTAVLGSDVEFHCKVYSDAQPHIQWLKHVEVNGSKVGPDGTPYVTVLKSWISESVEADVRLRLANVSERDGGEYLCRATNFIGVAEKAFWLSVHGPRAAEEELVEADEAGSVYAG
The assay is described as follows: reactivity grade (Table 2); method not given.

The target in assay [3] is T3, cynomolgus FGFR3 (cynomolgus).
T3 construct: also called cynoFGFR3
T3 chain: T1 sequence with A13V, P17S, G22S, T57A, R94L, R171K
The assay is described as follows: reactivity grade (Table 2); method not given.

Assay [4] deals with T4, N-terminal ECD protein of mouse FGFR3 with a terminal avidin tag (mouse, UniProt Q61851 21-369).
T4 construct: extracellular domain; not shown: terminal avidin tag
T4 sequence (looked up): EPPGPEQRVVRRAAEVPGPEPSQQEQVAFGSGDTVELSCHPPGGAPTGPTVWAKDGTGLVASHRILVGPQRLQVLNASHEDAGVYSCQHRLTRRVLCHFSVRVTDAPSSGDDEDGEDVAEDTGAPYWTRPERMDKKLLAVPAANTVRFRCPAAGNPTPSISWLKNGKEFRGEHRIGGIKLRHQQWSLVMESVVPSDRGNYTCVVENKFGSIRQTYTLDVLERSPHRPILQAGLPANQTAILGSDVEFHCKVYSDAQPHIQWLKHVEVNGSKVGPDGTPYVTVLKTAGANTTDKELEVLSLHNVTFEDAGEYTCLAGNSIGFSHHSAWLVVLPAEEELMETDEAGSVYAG
The assay is described as follows: SPR (Biacore), FGFR3 ECD immobilised on chip, antibody injected, 1:1 fit. (In SPR one partner is held on a chip, and binding of the other changes the refractive index at the surface.)

In assay [5] the target is T5, human FGFR3 (human, UniProt P22607 23-375).
T5 construct: also called hFGFR3
T5 sequence: T1 sequence
The assay is described as follows: affinity table; method not restated (Biacore SPR per Example 1).

For assay [6], the target named is T6, mouse FGFR3 (mouse, UniProt Q61851 21-369).
T6 construct: extracellular domain; also called mFGFR3
T6 sequence (looked up): T4 sequence (looked up)
The assay is described as above.

For orientation: Kd means the concentration at which binding is half-saturated. A low value points to tighter binding. The term koff denotes a measure of how fast the partners let go of each other. Broadly, the kon is the rate constant with which the complex forms. Read a high kon as fast association.

Substitutions are numbered along the chain they refer to.

B1: KE63 (antibody, V domains shown)
VH: QVQLQQSGAELVRPGASVTLSCKASGSTFSDFEIHWVKQTPVHGLEWIGGIDPETGGTAYNQKFKGKAILTADRSSSTAYMELRSLTSEDSAVYYCTRNYDGYSQTMDYWGQGTSVTVSS
VL: NIMMTQSPSSLAVSAGEKVTMSCKSSQSVLYSSNQKNYLAWYQQKPGQSPKLLIYWASTRESGVPDRFTGSGSGTDFTLTISSVQAEDLAVYYCHQYLSSYTFGGGTKLEMK
notes: Mouse monoclonal antibody from a hybridoma; also called anti-FGFR3 antibody KE63
On to B1, for which the binding result in assay [1] was “binds”. Also, in assay [2], the binding result is reported as “binds”. Further, the binding result in assay [3] is on record as “binds”. In assay [4], this molecule had a Kd of 6.7 nM, a koff of 0.00291 s⁻¹ and a kon of 436000 M⁻¹ s⁻¹.

B2: KC18 (antibody, V domains shown)
VH: B1 VH with S27D, S30T, G50D, K65R, K67R, I69M, N99T, S104P, Q105Y, T106A
VL: DIVMSQSPSSLAVSVGEKVTMSCKSSQSLLYSNNQKNYLAWYQQKPGQSPKLLIYWASTRESGVPDRFTGSGSGTDFTLTISSVKAEDLAVYYCQQYYSYRTFGGGTKLEIK
notes: Mouse monoclonal antibody from a hybridoma; also called anti-FGFR3 antibody KC18; KC18 mouse antibody
For B2, the binding result in assay [1], in assay [2] and in assay [3] was “binds” throughout. In assay [4], this molecule showed a Kd of 6.3 nM. In addition, the koff in assay [4] turned out to be 0.0011 s⁻¹. The molecule also showed a kon in assay [4] of 174000 M⁻¹ s⁻¹.

B3: KC18 (antibody, V domains shown)
VH: B1 VH with S27D, S30T, G50D, K65R, K67R, I69M, N99T, S104P, Q105Y, T106A
VL: B2 VL
notes: Mouse hybridoma antibody; also called parental KC18 antibody
B3: the Kd in assay [5] was found to be 2.73 nM; in assay [6] it was 3.78 nM.

B4: KE94 (antibody, V domains shown)
VH: B1 VH with S30T, G50A, D73V, R74K, E82G, Q105R
VL: B1 VL with T78S, T80S, A86T, K108R
notes: Mouse monoclonal antibody from a hybridoma; also called anti-FGFR3 antibody KE94
Take B4: in assay [1], the binding result was “binds”. In assay [2], the binding result was “binds”. Besides, the binding result in assay [3] is given as “binds”. Further, in assay [4], the Kd came to 2.1 nM, the koff was found to be 0.00148 s⁻¹ and the kon was 705000 M⁻¹ s⁻¹.

B5: KC18_Hu28 (antibody, human IgG1, kappa, V domains shown)
VH: QVQLVQSGAEVVKPGASVKLSCKASGDTFTDFEIHWVKQAPGQGLEWIGDIDPETGGTAYNQKFQGRATLTADRSSSTAYMELSRLRSDDTAVYYCTRTYDGYPYAMDYWGQGTTVTVSS
VL: DIVMTQSPSSLAVSLGERVTMNCKSSQSLLYSNNQKNYLAWYQQKPGQSPKLLIYWASTRESGVPDRFSGSGSGTDFTLTISSVQAEDVAVYYCQQYYSYRTFGGGTKLEIKR
B5: the Kd worked out at 4.46 nM in assay [5] and 5.41 nM in assay [6].

B6: KC18_Hu34 (antibody, human IgG1, kappa, V domains shown)
VH: B5 VH
VL: DIVMTQSPLSLAVTVGEKVSISCRSSQSLLYSNNQKNYLAWYQQKPGQSPKLLIYWGSTRESGVPDRFSGSGSGTDFTLTISRVEAEDVGVYYCQQYYSYRTFGGGTKLEIKR
With B6, the dissociation constant (Kd) came out at 6.85 nM in assay [5] and 8.14 nM in assay [6].

B7: KE58 (antibody, V domains shown)
VH: EVQLQQSGPDLVKPGASVKISCKASGYTVTDYYMNWVKQSHGKSLEWIGDINPNNGVTTYNQKFKDKATLTVDKSSSTAYMELRSLTSEDSAVYYCAREEDFDGFDYWGQGTTLTVSS
VL: DIVMTQSHKFMSTSVGDRVSITCKASQDVSTGVAWYQQKPGQSPQLLIYWASTRHTGVPDRFTGSGSGTDYILTIRSVQAEDLALYYCQQHYSTPLTFGAGTKLELK
notes: Mouse monoclonal antibody from a hybridoma; also called anti-FGFR3 antibody KE58
As to B7, the binding result in assay [1], in assay [2] and in assay [3] was “binds” each time. Further, the affinity in assay [4], expressed as Kd, was 5.5 nM. Also, the koff in assay [4] is 0.000918 s⁻¹. Moreover, in assay [4], the kon is 167000 M⁻¹ s⁻¹.

B8: KC18_Hu16 (antibody, human IgG1, kappa, V domains shown)
VH: EVQLVQSGAEVKKPGATVKLSCKASGDTFTDFEIHWVQQAPGKGLEWIGDVDPETGGTAYAEKFQGRATLTADRSTDTAYMELSSLRSEDTAVYYCTRTYDGYPYAMDYWGQGTLVTVSS
VL: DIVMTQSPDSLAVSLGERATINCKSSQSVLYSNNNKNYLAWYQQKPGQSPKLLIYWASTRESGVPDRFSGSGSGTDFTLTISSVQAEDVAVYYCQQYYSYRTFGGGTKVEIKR
B8: the Kd in assay [5] is 3.76 nM; in assay [6], 4.23 nM.

B9: KC18_Hu19 (antibody, human IgG1, kappa, V domains shown)
VH: B8 VH with E1Q, K12V, L20I, V51I, A61N, D77S, T97A, L115T
VL: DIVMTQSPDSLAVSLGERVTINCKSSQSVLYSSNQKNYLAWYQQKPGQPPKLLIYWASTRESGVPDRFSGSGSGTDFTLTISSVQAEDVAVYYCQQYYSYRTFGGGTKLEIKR
B9: the Kd in assay [5] is 2.99 nM; in assay [6], 3.78 nM.

B10: KC18_Hu27 (antibody, human IgG1, kappa, V domains shown)
VH: B5 VH with S17T, Q43K, Q62E, S76T, R85S, D89E
VL: B5 VL
Turning to B10, the results for the Kd in assay [5] and in assay [6] were 3.9 nM and 4.6 nM, respectively.

B11: KC18_Hu7 (antibody, human IgG1, kappa, V domains shown)
VH: B8 VH with E1Q, T17S, L20V, Q38R, K43Q, V51I, G57S, A59S, E62Q, D77S
VL: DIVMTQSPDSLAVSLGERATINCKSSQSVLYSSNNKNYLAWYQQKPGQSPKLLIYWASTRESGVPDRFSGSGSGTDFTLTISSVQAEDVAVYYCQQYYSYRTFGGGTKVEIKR
In the case of B11, the Kd in assay [5] is 5.41 nM; in assay [6] it was 6.36 nM.

B12: KC18_Hu12 (antibody, human IgG1, kappa, V domains shown)
VH: B8 VH with M107F
VL: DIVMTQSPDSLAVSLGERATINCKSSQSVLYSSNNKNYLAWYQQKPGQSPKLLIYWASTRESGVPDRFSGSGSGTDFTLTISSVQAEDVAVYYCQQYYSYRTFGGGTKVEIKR
As for B12, the values for the Kd in assay [5] and in assay [6] were 1.61 nM and 1.73 nM, respectively.

B13: KC18_Hu13 (antibody, human IgG1, kappa, V domains shown)
VH: B8 VH with E1Q, T17S, L20V, Q38R, K43Q, V51I, G57S, A59S, E62Q, D77S
VL: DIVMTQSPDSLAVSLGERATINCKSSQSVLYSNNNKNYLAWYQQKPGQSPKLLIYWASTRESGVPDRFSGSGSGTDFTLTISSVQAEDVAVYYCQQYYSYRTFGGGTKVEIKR
As to B13, the Kd in assay [5] turned out to be 4.52 nM; in assay [6], 5.28 nM.

B14: KC18_Hu18 (antibody, human IgG1, kappa, V domains shown)
VH: B8 VH with M107F
VL: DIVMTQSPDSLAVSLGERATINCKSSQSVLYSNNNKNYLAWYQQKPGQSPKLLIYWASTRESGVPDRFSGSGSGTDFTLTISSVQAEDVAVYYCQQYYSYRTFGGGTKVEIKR
Turning to B14, the Kd in assay [5] stood at 1.25 nM; in assay [6] it was 1.42 nM.

B15: KC18_Hu10 (antibody, human IgG1, kappa, V domains shown)
VH: B8 VH
VL: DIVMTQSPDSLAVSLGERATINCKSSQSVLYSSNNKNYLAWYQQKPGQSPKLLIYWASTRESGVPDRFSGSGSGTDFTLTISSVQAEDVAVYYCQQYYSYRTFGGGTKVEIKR
On to B15, for which the Kd amounted to 4.73 nM in assay [5] and 5.15 nM in assay [6].

B16: KC18_Hu23 (antibody, human IgG1, kappa, V domains shown)
VH: B8 VH with E1Q, K12V, L20I, V51I, A61N, D77S, T97A, L115T
VL: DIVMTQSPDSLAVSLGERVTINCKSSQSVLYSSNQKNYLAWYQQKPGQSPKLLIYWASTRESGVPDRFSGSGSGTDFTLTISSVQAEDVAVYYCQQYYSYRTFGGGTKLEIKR
On to B16, for which the Kd came out at 2.68 nM in assay [5] and 3.35 nM in assay [6].

B17: KE35 (antibody, V domains shown)
VH: EVQLQQSGPELVKPGASVKMSCKASGYTFTDYNMHWVKQSHGKSLEWIGYINPNNGGTRYNQKFKGKATLTVNKSSSTAYMELRSLTSEDSAVYYCARERDYDGAMDYWGQGTSVTVSS
VL: DIQMTQSPSSLSASLGGKVTITCKASQDINKFIAWYQHKPGKGPRLLIHYTSTLQPGIPSRFSGSGSGRDYSFSISNLEPEDIATYYCLQYDNLLWTFGGGTKLEIK
notes: Mouse monoclonal antibody from a hybridoma; also called anti-FGFR3 antibody KE35
Turning to B17, in assay [1], the binding result is recorded as “binds”. Moreover, the binding result in assay [2] is “binds”. Also, in assay [3], the binding result is reported as “binds”. In assay [4], this molecule returned a dissociation constant (Kd) of 1.89 nM, a koff of 0.00108 s⁻¹ and a kon of 571000 M⁻¹ s⁻¹.

B18: KE42 (antibody, V domains shown)
VH: B17 VH with E46Q, R59N, K63N, G66D, S77T, A105S, Y108F
VL: B17 VL with Y87F
notes: Mouse monoclonal antibody from a hybridoma; also called anti-FGFR3 antibody KE42
For the molecule B18, the binding result in assay [1] is recorded as “binds”. Moreover, the binding result in assay [2] is “binds”. In assay [3], the binding result was “binds”. In assay [4], this molecule yielded a Kd of 0.81 nM, a koff of 0.0006 s⁻¹ and a kon of 739000 M⁻¹ s⁻¹.

(Values after patent publication US20220056142A1 (Sanofi, published 2022).)
